The values that follow come from patent US20050053918A1, “Method of identifying peptides capable of binding to MHC molecules, peptides identified thereby and their uses” (priority 2001, published 2005).

For one assay, the system named is T1, HLA-A2.1.
T1 construct: expressed in transfected cells; host or cells: RMA-S-HHD (murine TAP-2 deficient lymphoma, C57BL/6 origin)
Description: Stabilization of cell surface HLA-A2.1 by peptide binding on RMA-S-HHD cells (FACS). Format: cell-based, human. The following applies: 100 μM peptide, 2 h 26° C. + 2 h 37° C., FACS with W6/32 mAb. The method, then:
Synthetic peptides were added to […] RMA-S-HHD cells to a concentration of […] followed by incubation for two hours at 26° C. and two hours at 37° C. […] The HLA-A2.1 peptide derived from gp100 served as a positive control and unloaded RMA-S-HHD cells as a negative control.
RMA-S-HHD cells were washed three times with PBS followed by incubation overnight in FCS-free IMDM medium at 26° C. Synthetic peptides were added to 10^6 cells at a concentration of 100 μM. The cells were incubated for two hours at 26° C. followed by two hours at 37° C. […] (Sigma).
Another approach to ascertain that the identified peptides were indeed MHC bound peptide antigens, their capacity to bind tightly and stabilize cell surface HLA-A2.1 was tested by reconstitution into empty MHC on the surface of RMA-S-HHD cells.
As to “GVYDGEEHSV [from MAGE XP-2 protein (MAGE-B2)]”, the “binding affinity to MHC by reconstitution and stabilization of empty MHC on the surface of RMA-S-HHD cells” value is “normal”.

A further assay concerns the target soluble HLA-A2 (Homo sapiens, UniProt P04439, D140Y/D185E/D98H/E176V/E277Q/G131W/G231S/I119V/I121R/I166T/I218V/N151K/N90K/P208A/P217A/Q86G/Q94H/R138H/R169H). The experiment in a line: Appearance of peptides recovered from soluble HLA-A2 of cancer cell lines (ESI-MS/MS). The following applies: MCF-7, MDA-231, PC3, UCI-107. From the text: Cell lines were co-transfected with plasmid HLA-A2/Q10^b and with phβ2m, which conferred resistance to the antibiotic G418 or transfected only with the plasmids sHLA-A2, sHLA-B7 and sHLA-Cw4 that contained the antibiotic resistance. Cells were electroporated by use of a Gene Pulser (Bio-Rad) set at […] 960 μF. Transfected cell clones were selected in G418 antibiotic and screened for those secreting sMHC to the growth medium. […] Color was developed with ABTS (Sigma) catalyzed by streptavidin peroxidase (Sigma).
Cultured cells, expressing the soluble MHC were grown to confluency in 150 mm plates. The culture medium was collected and residual cells were removed by centrifugation. […] The antibodies were coupled to NHS-activated agarose (Pharmacia) or to protein A Sepharose (Sigma) with n-methylpipelimidate (Sigma). The columns were washed with 0.5 M NaCl, 20 mM, Tris pH 8. The MHC molecules were eluted from the column with 0.1 M acetic acid at pH 3. Peptides were separated from the MHC complexes by boiling for five minutes in 10% acetic acid followed by ultra-filtration through a 3 kDa Microcon (Amincon).
The MHC bound peptides were resolved by reverse-phase HPLC on a 0.1 ID fused silica capillaries with length of about 30 cm (J&W) slurry packed with POROS 10 R2 (PerSepetive Biosystems). The capillaries were fitted with electrospray needle made from 36-gauge stainless tubing (Small Parts Inc. Miami Lakes, Fla.). A Rheodyne 9125 HPLC injector fitted with a 20 μl loop was used for loading the column. The peptides were resolved by a relatively long (90 minutes) linear gradient of 5 to 50% acetonitrile with 0.1% acetic acid, at a flow rate of about 1 μl/minute. The flow was electrosprayed directly from the HPLC column into an ion trap mass spectrometer (LCQ, Finnigan). The mass spectrometry analysis was done in the positive ion mode, using repetitively a full MS scan usually between 450 to 1500 atomic mass units (amu) followed by collision-induced decomposition (CID) of the dominant ion selected from the previous MS scan. In some cases the full MS was performed with a narrower mass range to reduce the number of detected peptides. The peptides were identified by comparing their MS and CID data to the calculated MS and CID of the proteins in the Genpept databank (www.ncbi.nlm.nih.gov/genpept) using the Sequest software (obtained from Finnigan, San Jose, Calif.). The number of times each peptide was fragmented by CID was usually limited to two by dynamic exclusion, a feature of the Xcalibur control software the LCQ mass spectrometer (Finnigan).
Take “GVYDGEEHSV [from MAGE XP-2 protein (MAGE-B2)]”: the “appearance of peptide in soluble HLA-A2 from cell lines of different tissue origin” value (shortened to “appearance … of different tissue origin”) is listed as “detected only in the ovarian cancer cells (UCI-107)”.

On to NLTISDVSV [from MUC1], for which the “appearance … of different tissue origin” value is “recovered only from MCF-7 grown without estrogen”.

As for “SLIGHLQTL [from protein tyrosine posphatase]”, the “appearance … of different tissue origin” value is listed as “detected only in the breast cancer cell MDA-231”.

For ALFGALFLA, the “appearance … of different tissue origin” value is on record as “recovered only from PC3 cells”.

As to “SLLGGDVVSV [from TSC-22 related protein]”, the “appearance … of different tissue origin” value is “detected at high level in the two-breast cancer cells (MCF-7 and MDA-231), but was not observed in the ovarian (UCI-107) and the prostate (PC3) cancer cells”.

For the next assay, the system named is EL4-HHD cells loaded with the synthetic peptides. Description: Cytotoxic T lymphocytes assay after immunization of HHD transgenic mice. Format: in vivo. The following applies: compared to negative control peptide ALLCAPSLL; effector-to-target ratio 50:1 shown. From the text: Cells were loaded separately with individual peptides, washed and injected in four groups: 1-p1028 (SEQ ID NO:13) alone, 2-p1258 (SEQ ID NO:24) alone, 3—pool of peptides: p913 (SEQ ID NO:5), p958 (SEQ ID NO:9), p989 of CD59 (SEQ ID NO:11) and p989 of FLI (SEQ ID NO:12), 4—peptides p1031 (SEQ ID NO:14), p1121 (SEQ ID NO:22) and p1068 (SEQ ID NO:16). Unloaded EL4-HHD or targets cells not loaded with the peptides were used as negative controls. An effector-to-target ratio of 50:1 is shown.
Transgenic mice expressing a single chain HLA-A2.1/Db-β2m which are double knockout for H-2 Db and for β2m (HHD mice) were immunized four times intra-peritoneally at 7-day interval with 2×10^6 irradiated (5,000 rad) RMA-S-HHD-B7.1 cells loaded for two hours at 26° C. followed by two hours at 37° C. with 100 μM of the synthetic peptides. Ten days after the last immunization the spleens were removed from the vaccinated mice. Splenocytes were re-stimulated with 100 μM of synthetic peptides for five days. Viable lymphocytes were separated by lympholyte-M (Cadarlane, Homby, Canada) and resuspended in RPMI-HEPES. Cytotoxic activity was measured as in [26] by admixing the lymphocytes at different ratios with 5×10^3 EL4-HHD cells grown in medium containing ^35S methionine and then loaded with the synthetic peptides.
To further evaluate the affinity of the peptides to the HLA-A2 and to obtain some insight into their immunogenic potential, selected peptides were tested for their ability to induce an immune response in HLA-A2 transgenic mice. It was assumed that only peptides that could be effectively presented and remain tightly bound to the cells would be capable of inducing an immune response in these mice. The same synthetic peptides that were used for the FACS analysis were used for immunization of the HHD transgenic mice, which express the human HLA-A2.1/Db-β2m single chain. To immunize the mice, the HHD culture cells were loaded with the different peptides and then injected to the HHD mice. The immune response in the mice was followed by the appearance of CTLs specific for these peptides. Some of the peptides were indeed capable of inducing an immune response, which both authenticate them as MHC bound peptides and gives an indication about their immunogenic potential.
In the case of FLFDGSPTYVL [from fatty acid synthase], the “lysis of EL4-HHD cells loaded with the peptides by CTLs of immunized HHD mice” value (shortened to “lysis of EL4-HHD cells loaded”) is reported as “significant lysis”.

As for “GLIEKNIEL [from DNA (cytosine-5-)-methyltransferase]”, the “lysis of EL4-HHD cells loaded” value is given as “significant lysis”.

TLWVDPYEV [from BTG2]: the “lysis of EL4-HHD cells loaded” value is recorded as “significant lysis”.

In the case of ALSDHHIYL [from aldolase A], the “lysis of EL4-HHD cells loaded” value is listed as “significant lysis”.

Another assay deals with T2, sHLA-A2 (human).
T2 construct: also called sA2; sMHC-A2
The experiment in a line: sMHC eluate MS, UCI-101.
Settings: not given
As to FLFDGSPTYVL (also called p1258), the binding result was “binds”.

For the molecule ILDKKVEKV, the binding result is given as “binds”.

In the case of ALSDHHIYL (also called p1068), the binding result is on record as “binds”.

For the molecule SLFPGKLEV (also called p989 of FLI), the binding result is “binds”.

As to LLLDVPTAAVQA (also called p1210; p11210), the binding result is on record as “binds”.

Turning to SLSEKTVLL (also called p989 of CD59), the binding result is “binds”.

For LLLDVPTAAV (also called p1011), the binding result is “binds”.

GLIEKNIEL (also called p1028): the binding result is given as “binds”.

For the molecule SLWGQPAEA (also called p958), the binding result is on record as “binds”.

Consider GLLGTLVQL (also called p913), for which the binding result was “binds”.

In the case of GLYPGLIWL (also called p1031), the binding result is recorded as “binds”.

As for LLDVPTAAV (also called p898), the binding result is reported as “binds”.

YLLPAIVHI: the binding result is listed as “binds”.

Turning to SLLPPTALVGL (also called p1080), the binding result is “binds”.

On to SLLPPDALVGL (also called p1094), for which the binding result is “binds”.
